Drawing on the NTF2 design screens of Basanta et al. (2020), this text covers protease stability score for 34 sequences.

The series is described as follows: protease stability score; higher = more stable; yeast display proteolysis, trypsin and chymotrypsin.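 Note: relative to predicted unfolded state with 0 unfolded-like and 1 meaning tenfold more protease.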
“SEDERLAREVIEILHNIMHTGDEHLLDEMLDPNAKVHFDGKDFHGMDVWIKFLIEIRVDSIHVRRVHSINGVLHVDSELDGTINGKKDIRRTRIIMEKVDGRWRVTEVRYV” registered a protease stability score of 1.41. With “DEEKEIHEELVRIWNHAVNTGNEELMERLMDPNVRLLYNGVDLIGMEHAREFNKRFDHLKIRRNEIKSFRVQGNKIDSDTHVDVELNINGKTLRVQQDQHWVVLKVDGRWYIHKIEIL” the figure was 0.799; with “SEEEHVLEFIVKLFLEAWLTGDEDIIDWLVDPHTRLHVNGVDLHGREEVSHFLAHIRVEQLHIDDERITNINGVLHVDIKTEERFDVNGRVTRTKSELHIFIRKVDGRWFIQVFKIVYH”, 0.332. With “DERERDAEDALDELREIWRTGDWELIHQMLDPEVRLDINGVRLVGREHWVDEVRRLFHKVPGMTYHLKDVHFQGNKMHVDILSRYDGRESKVDLILLKINGKWLNKEVRIREE” the figure was 0.807. The figure for “DEDKEMIRHAVEILLKTLYTGDWETLERLLDPNARINVDGVDIHGRDVVKHWLDRADHVSIHDSHVERFRFVNGRLTIHIKEHSRFEIGDKTMRVELKRNLFILKIDGRWILESERIV” is 1.01. In turn, “SHLEEETMHIAEIFIKNELTGDERKLVELLDPNTRLHIDIGDKHIDVHGMENITKLLREIWKRLGADHVHIKDVRVQGDKADIITRIDVNGREIHSRIHILVINGKIESLKLHVE” gave a protease stability score of 1.33.

Take “SEEEKEDWEWMEIFYDALHTGDEKLIRDNADPNVKFRQGDYHSVGREEYIRKIDELRRRLGITKIRLEIDHVEVINGRSNVDTTIHVNGREIRSTLHVQVVNGRIKEIEIHLR”: the protease stability score came out at 1.04. The figure for “NELTEVIRYWIHLWLTQLFTGNEEIIRRLADPNARFEVNGREIHGMDEWVDILKRLGMRFHHFHVDTIEIIDGVIHVQSRFDIDINGRRVNEETYHVIEKINGRWTLRTMELR” is 2.31. Turning to “SEEEEQLIRMADVFLHLFLTGDEDTLRSLFDPNAKLDINGVHSVGRENVKKAKEEWENKLGVNHHRLHEIRVVNGRTDLDGEVEWDGKRQRVRLVLVLINGRIRHEKIIFE”, the protease stability score is 1.03. The sequence “DEDEKKLEHHLRTYEEALRTGDEELNHRLADPNTKVDVDGRYIHGRDFWREIMNQWRFKEMRFREIHLQGDKANVDTEVNIDVNGREMRTESHIISIKIDGRWMIKEVRFR” had a protease stability score of 0.799. The figure for “SESEEFAREFLEHMEKFLRTGNWEEMKRNADPNVLLRIGDKHLHGREEYEEWLRKFLEHMRIREVEVKDLKIVGDKIFLIIRIRIHFDGREDQLDTILVMQKVDGRWIVTEIRVR” is 1.21; for “GELEKLATTIVRLWVRHWYTGDEESSMRLMDPNARIIINGKEMHGRELYVHFLRRVLEHIRPESVDIEEVKIQGDYAHIDITEHRRIGDKEVTFRTEVSIIVINGKVTEVHMEIR” it is 1.7.

Take “DEDEEMSKLLLEVSERVIETGDEHLWTRLLDPNVRIHLIIGDKTIELIGRERAHELLHHILERYKNATLRLRSVEIQGDKVIVESELNVGDKRIKQIYIWTKINGQWVLEEVNIEVR”: the protease stability score turned out to be 1.44. In the case of “SDLEKETEELTRLFLENLVTGDEKTARELIDPHAMTDIGDFHIHGRDRTFRHIEELWRHWGVDRIRIHHDHIDIQGNKSYIEGTIHINGQSRKVHLIIIVFNGRIDKVRMHIR”, the protease stability score was found to be 1.36. The figure for “DELEKDARKLFEMIYRMLKTGDEDHFLRLADPDVRVHQGDKEIHGMDISKQIVEDLGIQKIEVHVHKVEIQGDKVDITGEVNWNGQNINLIVYTEKVNGKWRIHSVELH” is 1.61; for “DEEEHDVEVAFREYVKSTKTGDEDTLRHLADPHVKIWVDGRDFHGREVYYRLEKKIMEEWRFHDMHVEHVLVQGNKMTLHTRIDGEFDGKKVNLEVIIISVKVDGQWMIHSLEHR” it is 2.22; for “RDTEETVENASKRWVRTMETGDEDVLHRLLDPHVRVEAENHEIHGREIVSTHIREILEKLGMTIHIHLKDVRVQGNKAEIDMHIEYIIDGRITSHDYTLINRKINGRWLVERVIIN” it is 0.31. For “DEQNELLDRLSTILLRLLWTGDEDQWLRLADPDMKLDVGNFKTVGRERVIEIFRAWERHIRVERMHLEDTKLQGDFYFSDYRVDGQINGQRTDTRVIYIFVVVNGRMKSIKVIIE”, the protease stability score was found to be 1.34. The figure for “SEEEKLSRELVNEFLRLWKTGDWRRFHELADPDAKQQYNVNGQNFDYHGRDEVTDAVREFLNRLGVDHFHVHDSRIIGEKKEIDGHLNFNGRTHHIEMVVVVINGRVHKIEFHVR” is 0.28.

“DERHEDIKKFMELVLRLAKTGDEDHFSNMVDPHARLEIGDKHYIGRELVSTLFHEIRLHDMKIHNIISYGDKVKADVRLDIEFDGRRWNINTLLIIHKVNGQWLLESERRH” came in with a protease stability score of 1.14. The figure for “HDEEREVHEWIKLIEHHLRTGDEDAVRKLVDPTVRNDINGVDVVGRREDVERLHQADHIDIELKHVEIQGDKLHIDGVLILDFNGRHFYFRMKIIASKYNGVWKIKEKRVH” is 0.999. For the sequence “SEIEELMKISLREFLHSSETGDEEHHNRYADPNVRLEIGDKTLIGWEALEHLLEHWKREAGIEKIELHIHVTRIHVQGEKLEFDGHLEVRQGDKVNHVKVTLVITKIDGKWVLHSVVFI”, the protease stability score amounted to 0.367. As for “DDVERIVKHMLELHIQSWLTGNEHLMHRLADPNVRSHIGDKERVGRHELSEMMIKHWEHLRIHRVEIRDSDVVGEKAESNTHVVVIFNGVEVRFDVRIEVVSINGRLHSSHIIIE”, the protease stability score is -0.029. The figure for “SEDEELSRIISHLEVDLVHTGDEDTMRKLFDPNAKSHIHVGEYNIESHGREWISILWTDLGADHRELDEIQTDVQGDKVFVNMDLTMDVDGVSHRMFIQFVSVKVDGRWTIKEINVSVI” is 1.81; for “TEEEEKVMEIIEIILHVLKTGDEHLLENLIDPNARSEYGDKELHGREQILRFAWWVSHHIRLKHLHIDSMRVFNGRIEIHGHNIGEINGRESEIHLSLIMIKVDGQWKIHSMRFE” it is 1.44. In turn, “DEEKKEILEIARRVIESLLTGDWEEDHELADPNVLYIQGDKEVHGMETTWRIIFELRHQIKGMTEHIHIRRVEIVNGVAHLDTELRLNVNGREVTHETHVHIFLYNGRVKRIEVRIK” came in with a protease stability score of 1.48.

“DEDDEAAEMAVRFFIEILLTGNENIHSKLLDPNVKVNIGEFESIGRKEVEKTFKEFVHHMWIRHIEVHKWSVYDGQVDVESRLDGQVNGQHVNVEVLIIIVKINGKWFLRSLDFR” had a protease stability score of 1.71. The figure for “DDLEKWYEDIARLYHHNLLTGDEDVIHELLDPNVRLVVGDKHFHGRESVIEFLKRELTEIRIEDIKIKEVHWVGDFSINRGTLHIRINGVLFDVRSEVIFDVINGKIRRVTRIII” is 1.6; for “DEDFELAERFLEKWINVSRTGDEKKAHELVDPNVLINIGDKQIHGRERVVEWVSHIRIHHLEIHHFDVQGDKLIIDGRMDGTVNGRRVDHHIRIIISKVNGRWQTKTIDHE” it is 0.665; for “DEEEHTAHVAHKLWEDSLHTGNEDNHRKLLDPHARIIVNGRLLHGWEDVEKILKDLGIKVMHMELERIKVVGDKLRIVGHLETRFDGRTIRLREELVVRKFNGRWHIEEINIL” it is 1.24. The figure for “DEDDEHTHEMLKLVITAINTGDFEKWRHMADPNVRSDIDGQEVHGRETIIEVWRRIEKELGIENVEVHTRRVEVINGVAHIDGHIRFNGRTHKVRIEVYLINGKIQEFVLSRH” is 1.45. The figure for “TEEQEESTRAYEEILQYIRTGDERQMTKYADPHVKLIFNGKEIHGREMFVELVKQYGIDHHHIHNWDFINGRVRMETHVRQGDKHDNAHIDMTKFDGKWIVRLFVFV” is 0.856. “DEEEEHLHSVAKRFLHSVETGDWKDLYELLDPHARFESVFNGRKVEHHGREEARKWFQEWVERFKNMRLHIEEVRTQGDKTHVDSRVHYGDKTINTIIHIVIVNGKVHHVEIRVK” registered a protease stability score of 2.2.

“NEDERETELFLRLFRRALLTGDWRAIEDLMDPNVMIHVNGREFHGREQYYKIVMNELTHWRLHHTKIDDIRLYDGVLRVQLRLQGEINGREDFLHLHVIIEKIDGKWIFRSVEIR” had a protease stability score of 1.91.
